The record followed here is patent US20220323583A1 (MacroGenics, published 2022).

Experiment [1] has as its target human CD123 on target cell lines (Kasumi-3, Molm13, THP-1, TF-1, RS4-11) (human, UniProt P26951 19-378). Nature of the experiment: cell-based or functional assay.
Another experiment deals with T1, Human CD123-His (human, UniProt P26951 19-305, limits assumed).
T1 construct: Only the label 'Human CD123-His' is printed; also called interleukin 3 receptor alpha; IL-3Ra; not shown: His tag
T1 sequence (looked up): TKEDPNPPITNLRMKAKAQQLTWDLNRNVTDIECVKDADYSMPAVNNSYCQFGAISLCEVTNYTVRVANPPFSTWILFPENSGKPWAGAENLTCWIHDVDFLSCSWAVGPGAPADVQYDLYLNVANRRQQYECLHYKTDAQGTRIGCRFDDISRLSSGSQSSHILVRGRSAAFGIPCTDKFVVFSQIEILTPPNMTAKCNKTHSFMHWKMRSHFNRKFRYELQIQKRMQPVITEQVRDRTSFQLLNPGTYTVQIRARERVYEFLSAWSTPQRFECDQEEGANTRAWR
In words: kinetic binding measurement, method not stated.

Another experiment concerns the target T2, Cynomolgus CD123-His (cynomolgus monkey).
T2 construct: Only the label 'Cynomolgus CD123-His' is printed; also called cynomolgus monkey CD123
In words: kinetic binding measurement, method not stated.

B1: DART-A, sequence-optimized CD123×CD3 bispecific diabody (bispecific antibody)
chain 1: QAVVTQEPSLTVSPGGTVTLTCRSSTGAVTTSNYANWVQQKPGQAPRGLIGGTNKRAPWTPARFSGSLLGGKAALTITGAQAEDEADYYCALWYSNLWVFGGGTKLTVLGGGGSGGGGEVQLVQSGAELKKPGASVKVSCKASGYTFTDYYMKWVRQAPGQGLEWIGDIIPSNGATFYNQKFKGRVTITVDKSTSTAYMELSSLRSEDTAVYYCARSHLLRASWFAYWGQGTLVTVSSGGCGGGEVAALEKEVAALEKEVAALEKEVAALEK
chain 2: DFVMTQSPDSLAVSLGERVTMSCKSSQSLLNSGNQKNYLTWYQQKPGQPPKLLIYWASTRESGVPDRFSGSGSGTDFTLTISSLQAEDVAVYYCQNDYSYPYTFGQGTKLEIKGGGSGGGGEVQLVESGGGLVQPGGSLRLSCAASGFTFSTYAMNWVRQAPGKGLEWVGRIRSKYNNYATYYADSVKDRFTISRDDSKNSLYLQMNSLKTEDTAVYYCVRHGNFGNSYVSWFAYWGQGTLVTVSSGGCGGGKVAALKEKVAALKEKVAALKEKVAALKE
notes: Two chains covalently bonded by a disulfide bond, no Fc; a second species lacks the C-terminal lysine; also called CD123×CD3 diabody; CD123 × CD3 Bi-Specific Diabodies
One may read the Kd as the concentration at which binding is half-saturated. A higher Kd goes with weaker binding. As usually defined, the koff is a measure of how fast the partners let go of each other. Lower therefore signals slow dissociation. What is called kon is the rate constant with which the complex forms. With B1, in experiment [1], the “EC50 of redirected killing, E:T = 10:1, Kasumi-3 target cells” value was found to be 0.01 ng/mL; the “EC50 of redirected killing, E:T = 10:1, Molm13 target cells” value turned out to be 0.18 ng/mL; the “EC50 of redirected killing, E:T = 10:1, RS4-11 target cells” value turned out to be 0.5 ng/mL; the “EC50 of redirected killing, E:T = 10:1, TF-1 target cells” value is 0.46 ng/mL. The “EC50 of redirected killing, E:T = 10:1, THP-1 target cells” value in experiment [1] amounted to 0.24 ng/mL. Besides, in the experiment with Human CD123-His, the Kd worked out at 0.13 nM, the off-rate constant (koff) was 0.00019 s⁻¹ and the kon was 1.6e+06 M⁻¹ s⁻¹. In the experiment with Cynomolgus CD123-His, this molecule yielded an equilibrium dissociation constant (Kd) of 0.27 nM, a koff of 0.0004 s⁻¹ and a kon of 1.5e+06 M⁻¹ s⁻¹.
